These results are taken from PMC3735830 (Nature structural & molecular biology, 2013).

Among the targets are Mcm3 (S. cerevisiae, UniProt P24279 1-971); MCM2-7 (S. cerevisiae, UniProt P29469;P24279;P30665;P29496;P53091;P38132); MCM2-7-ΔC3 (S. cerevisiae, UniProt P29469;P24279;P30665;P29496;P53091;P38132).
Common to all, as to assay: co-IP
For a further assay, the target named is T1, Mcm4 (S. cerevisiae, UniProt P30665 1-933).
T1 sequence: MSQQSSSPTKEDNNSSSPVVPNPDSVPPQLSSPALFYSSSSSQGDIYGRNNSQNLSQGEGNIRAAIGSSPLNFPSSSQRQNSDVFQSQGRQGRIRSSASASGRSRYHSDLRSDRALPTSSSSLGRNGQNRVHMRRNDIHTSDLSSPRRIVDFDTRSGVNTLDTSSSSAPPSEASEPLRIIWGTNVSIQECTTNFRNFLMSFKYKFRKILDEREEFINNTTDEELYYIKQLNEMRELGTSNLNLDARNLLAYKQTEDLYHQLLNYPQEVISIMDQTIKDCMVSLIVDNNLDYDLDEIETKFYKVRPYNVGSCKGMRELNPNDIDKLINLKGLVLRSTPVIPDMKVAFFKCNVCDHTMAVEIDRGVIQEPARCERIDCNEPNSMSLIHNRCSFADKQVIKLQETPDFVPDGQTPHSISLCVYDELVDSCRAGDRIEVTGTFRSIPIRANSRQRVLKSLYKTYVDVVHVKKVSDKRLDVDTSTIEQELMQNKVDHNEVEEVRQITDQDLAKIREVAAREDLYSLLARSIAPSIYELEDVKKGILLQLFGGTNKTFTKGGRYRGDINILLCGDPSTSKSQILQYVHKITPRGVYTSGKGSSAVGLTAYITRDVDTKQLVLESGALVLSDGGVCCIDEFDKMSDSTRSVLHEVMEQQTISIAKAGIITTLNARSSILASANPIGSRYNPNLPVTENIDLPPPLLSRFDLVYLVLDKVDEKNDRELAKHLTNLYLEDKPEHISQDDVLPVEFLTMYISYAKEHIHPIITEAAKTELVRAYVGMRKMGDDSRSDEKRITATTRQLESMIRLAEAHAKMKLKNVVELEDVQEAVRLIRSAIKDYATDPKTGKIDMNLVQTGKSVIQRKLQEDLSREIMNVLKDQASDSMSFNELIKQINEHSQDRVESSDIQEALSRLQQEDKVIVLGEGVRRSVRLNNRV

Assay [1] concerns the target Origin Recognition Complex (ORC) (S. cerevisiae, UniProt P54784;P32833;P54790;P54791;P50874;P38826).

Sequence of MCM2-7-ΔC3 (P24279 1-739, stated change not applied, chain 2 of 4): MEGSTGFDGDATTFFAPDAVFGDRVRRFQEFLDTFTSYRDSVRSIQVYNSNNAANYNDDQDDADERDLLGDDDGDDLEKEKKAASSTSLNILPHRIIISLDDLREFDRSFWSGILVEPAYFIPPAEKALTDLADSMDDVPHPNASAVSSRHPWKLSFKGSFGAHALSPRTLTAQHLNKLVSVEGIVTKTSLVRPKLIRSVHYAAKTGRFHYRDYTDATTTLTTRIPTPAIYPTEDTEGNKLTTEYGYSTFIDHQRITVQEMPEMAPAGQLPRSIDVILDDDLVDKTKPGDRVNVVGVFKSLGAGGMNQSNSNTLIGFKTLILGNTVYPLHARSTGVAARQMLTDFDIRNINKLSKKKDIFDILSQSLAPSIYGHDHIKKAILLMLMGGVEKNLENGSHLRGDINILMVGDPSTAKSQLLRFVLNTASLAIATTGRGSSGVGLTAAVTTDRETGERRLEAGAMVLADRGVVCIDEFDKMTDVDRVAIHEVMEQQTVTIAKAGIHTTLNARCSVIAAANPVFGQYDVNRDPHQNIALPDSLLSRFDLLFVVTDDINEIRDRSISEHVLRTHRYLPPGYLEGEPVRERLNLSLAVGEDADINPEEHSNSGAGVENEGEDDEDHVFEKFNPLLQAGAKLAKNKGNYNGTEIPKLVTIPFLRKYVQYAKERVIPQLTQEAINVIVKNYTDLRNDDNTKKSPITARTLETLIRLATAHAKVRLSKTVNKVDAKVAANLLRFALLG
Sequence of MCM2-7-ΔC3 (P29496 whole entry, stated change not applied, chain 4 of 4): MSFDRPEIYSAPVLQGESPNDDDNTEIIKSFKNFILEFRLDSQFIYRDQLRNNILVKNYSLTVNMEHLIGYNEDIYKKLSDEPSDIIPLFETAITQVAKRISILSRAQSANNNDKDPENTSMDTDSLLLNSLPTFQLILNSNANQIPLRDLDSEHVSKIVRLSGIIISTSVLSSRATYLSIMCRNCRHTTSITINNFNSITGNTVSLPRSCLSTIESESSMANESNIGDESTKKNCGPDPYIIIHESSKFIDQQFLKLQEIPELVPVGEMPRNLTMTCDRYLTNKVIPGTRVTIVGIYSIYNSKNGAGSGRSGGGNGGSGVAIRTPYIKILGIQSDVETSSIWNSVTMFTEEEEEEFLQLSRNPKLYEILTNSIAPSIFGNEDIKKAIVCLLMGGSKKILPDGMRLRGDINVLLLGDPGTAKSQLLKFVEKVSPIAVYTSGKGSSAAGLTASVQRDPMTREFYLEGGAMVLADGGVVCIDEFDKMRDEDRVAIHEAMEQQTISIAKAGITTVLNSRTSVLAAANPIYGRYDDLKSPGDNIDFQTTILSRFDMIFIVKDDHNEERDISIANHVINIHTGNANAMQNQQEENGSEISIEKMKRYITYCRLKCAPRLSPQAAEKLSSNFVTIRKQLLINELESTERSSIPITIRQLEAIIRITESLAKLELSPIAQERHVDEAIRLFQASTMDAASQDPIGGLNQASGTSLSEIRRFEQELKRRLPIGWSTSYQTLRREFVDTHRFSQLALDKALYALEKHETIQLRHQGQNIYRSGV
Sequence of MCM2-7-ΔC3 (P53091 whole entry, stated change not applied, chain 5 of 4): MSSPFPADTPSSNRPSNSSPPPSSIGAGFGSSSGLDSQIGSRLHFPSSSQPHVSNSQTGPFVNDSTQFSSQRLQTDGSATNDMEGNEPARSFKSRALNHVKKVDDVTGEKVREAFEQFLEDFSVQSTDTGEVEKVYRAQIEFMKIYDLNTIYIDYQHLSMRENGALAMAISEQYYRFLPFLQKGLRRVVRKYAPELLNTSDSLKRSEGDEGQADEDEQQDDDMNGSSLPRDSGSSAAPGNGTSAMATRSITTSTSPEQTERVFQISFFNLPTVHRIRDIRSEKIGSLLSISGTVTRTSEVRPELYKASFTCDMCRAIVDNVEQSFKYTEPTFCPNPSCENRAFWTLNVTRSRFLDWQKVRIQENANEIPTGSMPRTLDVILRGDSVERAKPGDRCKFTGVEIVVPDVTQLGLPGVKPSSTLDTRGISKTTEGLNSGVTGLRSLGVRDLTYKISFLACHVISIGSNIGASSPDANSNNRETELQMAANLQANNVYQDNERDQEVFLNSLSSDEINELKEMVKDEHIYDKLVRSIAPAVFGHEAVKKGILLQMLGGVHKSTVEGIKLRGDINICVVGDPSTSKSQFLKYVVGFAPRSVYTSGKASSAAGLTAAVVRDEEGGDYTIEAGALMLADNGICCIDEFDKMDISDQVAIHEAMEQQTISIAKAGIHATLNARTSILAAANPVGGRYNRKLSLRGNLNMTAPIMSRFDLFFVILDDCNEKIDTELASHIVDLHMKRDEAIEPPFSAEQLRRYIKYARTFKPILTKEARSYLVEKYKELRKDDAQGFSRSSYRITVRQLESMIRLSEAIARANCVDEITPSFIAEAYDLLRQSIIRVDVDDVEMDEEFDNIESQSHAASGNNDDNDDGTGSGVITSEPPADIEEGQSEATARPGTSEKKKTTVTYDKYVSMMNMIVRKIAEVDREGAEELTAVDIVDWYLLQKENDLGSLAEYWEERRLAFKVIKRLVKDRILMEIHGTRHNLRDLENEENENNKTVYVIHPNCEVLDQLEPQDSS
Sequence of MCM2-7-ΔC3 (P38132 whole entry, stated change not applied, chain 6 of 4): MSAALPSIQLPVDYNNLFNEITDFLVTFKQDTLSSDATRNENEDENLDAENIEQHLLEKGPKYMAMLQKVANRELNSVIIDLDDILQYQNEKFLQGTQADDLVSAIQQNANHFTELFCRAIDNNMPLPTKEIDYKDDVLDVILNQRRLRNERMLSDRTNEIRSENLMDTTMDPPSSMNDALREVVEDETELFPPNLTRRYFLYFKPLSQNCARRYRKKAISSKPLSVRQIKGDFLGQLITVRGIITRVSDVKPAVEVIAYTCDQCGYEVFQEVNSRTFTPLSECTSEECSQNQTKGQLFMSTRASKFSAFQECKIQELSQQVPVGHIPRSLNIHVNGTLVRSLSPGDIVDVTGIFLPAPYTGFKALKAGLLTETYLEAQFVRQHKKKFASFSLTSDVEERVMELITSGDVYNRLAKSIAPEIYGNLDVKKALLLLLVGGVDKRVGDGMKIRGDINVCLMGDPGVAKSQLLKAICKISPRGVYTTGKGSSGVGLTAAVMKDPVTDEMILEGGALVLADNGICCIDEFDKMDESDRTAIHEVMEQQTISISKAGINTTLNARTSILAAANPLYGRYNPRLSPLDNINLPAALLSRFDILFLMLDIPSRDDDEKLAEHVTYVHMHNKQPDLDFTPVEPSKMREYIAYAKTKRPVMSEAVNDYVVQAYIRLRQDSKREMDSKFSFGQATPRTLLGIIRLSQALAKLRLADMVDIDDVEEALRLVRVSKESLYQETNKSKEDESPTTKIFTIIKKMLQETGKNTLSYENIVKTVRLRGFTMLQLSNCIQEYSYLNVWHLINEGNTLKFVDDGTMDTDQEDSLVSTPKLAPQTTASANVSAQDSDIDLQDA
Sequence of MCM2-7 (P24279 whole entry, chain 2 of 4): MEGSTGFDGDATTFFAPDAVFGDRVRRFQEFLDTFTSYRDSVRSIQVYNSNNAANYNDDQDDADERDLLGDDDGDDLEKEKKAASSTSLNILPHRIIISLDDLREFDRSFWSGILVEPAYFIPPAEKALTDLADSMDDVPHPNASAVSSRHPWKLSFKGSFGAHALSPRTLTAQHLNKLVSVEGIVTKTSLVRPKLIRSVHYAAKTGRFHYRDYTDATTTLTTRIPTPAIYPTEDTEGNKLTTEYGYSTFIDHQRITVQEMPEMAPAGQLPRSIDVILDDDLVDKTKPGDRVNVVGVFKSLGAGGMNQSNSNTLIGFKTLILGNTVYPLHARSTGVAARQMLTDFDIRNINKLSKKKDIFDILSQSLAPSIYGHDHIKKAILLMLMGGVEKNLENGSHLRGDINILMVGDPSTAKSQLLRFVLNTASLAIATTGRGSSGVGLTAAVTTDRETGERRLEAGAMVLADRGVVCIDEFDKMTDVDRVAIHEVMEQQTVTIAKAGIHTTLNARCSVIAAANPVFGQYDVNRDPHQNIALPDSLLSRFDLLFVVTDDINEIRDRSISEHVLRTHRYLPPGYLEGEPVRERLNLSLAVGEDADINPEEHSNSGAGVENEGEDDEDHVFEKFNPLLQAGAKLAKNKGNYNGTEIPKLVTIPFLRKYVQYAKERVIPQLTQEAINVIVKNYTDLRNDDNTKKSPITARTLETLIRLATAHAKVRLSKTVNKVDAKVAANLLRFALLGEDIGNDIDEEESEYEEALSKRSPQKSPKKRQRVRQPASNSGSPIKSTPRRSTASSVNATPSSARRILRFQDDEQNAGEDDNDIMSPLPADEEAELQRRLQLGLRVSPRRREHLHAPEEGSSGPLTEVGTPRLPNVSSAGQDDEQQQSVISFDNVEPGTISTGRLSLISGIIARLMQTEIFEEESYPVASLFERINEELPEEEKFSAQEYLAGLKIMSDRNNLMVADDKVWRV
Sequence of MCM2-7 (P29496 whole entry, chain 4 of 4): as the sequence (P29496 whole entry, stated change not applied, chain 4 of 4) above
Sequence of MCM2-7 (P53091 whole entry, chain 5 of 4): as the sequence (P53091 whole entry, stated change not applied, chain 5 of 4) above
Sequence of MCM2-7 (P38132 whole entry, chain 6 of 4): as the sequence (P38132 whole entry, stated change not applied, chain 6 of 4) above
Sequence of Mcm3 (P24279 whole entry): as the sequence (P24279 whole entry, chain 2 of 4) above

B1: Mcm2 (natural protein)
chain: MSDNRRRRREEDDSDSENELPPSSPQQHFRGGMNPVSSPIGSPDMINPEGDDNEVDDVPDIDEVEEQMNEVDLMDDNMYEDYAADHNRDRYDPDQVDDREQQELSLSERRRIDAQLNERDRLLRNVAYIDDEDEEQEGAAQLDEMGLPVQRRRRRRQYEDLENSDDDLLSDMDIDPLREELTLESLSNVKANSYSEWITQPNVSRTIARELKSFLLEYTDETGRSVYGARIRTLGEMNSESLEVNYRHLAESKAILALFLAKCPEEMLKIFDLVAMEATELHYPDYARIHSEIHVRISDFPTIYSLRELRESNLSSLVRVTGVVTRRTGVFPQLKYVKFNCLKCGSILGPFFQDSNEEIRISFCTNCKSKGPFRVNGEKTVYRNYQRVTLQEAPGTVPPGRLPRHREVILLADLVDVSKPGEEVEVTGIYKNNYDGNLNAKNGFPVFATIIEANSIKRREGNTANEGEEGLDVFSWTEEEEREFRKISRDRGIIDKIISSMAPSIYGHRDIKTAVACSLFGGVPKNVNGKHSIRGDINVLLLGDPGTAKSQILKYVEKTAHRAVFATGQGASAVGLTASVRKDPITKEWTLEGGALVLADKGVCLIDEFDKMNDQDRTSIHEAMEQQSISISKAGIVTTLQARCSIIAAANPNGGRYNSTLPLAQNVSLTEPILSRFDILCVVRDLVDEEADERLATFVVDSHVRSHPENDEDREGEELKNNGESAIEQGEDEINEQLNARQRRLQRQRKKEEEISPIPQELLMKYIHYARTKIYPKLHQMDMDKVSRVYADLRRESISTGSFPITVRHLESILRIAESFAKMRLSEFVSSYDLDRAIKVVVDSFVDAQKVSVRRQLRRSFAIYTLGH
As for B1, the binding result (with Mcm3; with Mcm4; in assay [1]) was “binds” in each case.

B2: MBP-Cdc6 (natural protein)
chain: MSAIPITPTKRIRRNLFDDAPATPPRPLKRKKLQFTDVTPESSPEKLQFGSQSIFLRTKALLQKSSELVNLNSSDGALPARTAEYEQVMNFLAKAISEHRSDSLYITGPPGTGKTAQLDMIIRQKFQSLPLSLSTPRSKDVLRHTNPNLQNLSWFELPDGRLESVAVTSINCISLGEPSSIFQKIFDSFQDLNGPTLQIKNMQHLQKFLEPYHKKTTFVVVLDEMDRLLHANTSETQSVRTILELFLLAKLPTVSFVLIGMANSLDMKDRFLSRLNLDRGLLPQTIVFQPYTAEQMYEIVIQKMSSLPTIIFQPMAIKFAAKKCAGNTGDLRKLFDVLRGSIEIYELEKRFLLSPTRGSLNSAQVPLTPTTSPVKKSYPEPQGKIGLNYIAKVFSKFVNNNSTRTRIAKLNIQQKLILCTIIQSLKLNSDATIDESFDHYIKAITKTDTLAPLQRNEFLEICTILETCGLVSIKKTKCKGKTKRFVDKIDVDLDMREFYDEMTKISILKPFLH
With B2, the binding result with MCM2-7 and with MCM2-7-ΔC3 was “binds” in each case.
